Consider two substances from paper doi:10.1101/2020.07.31.231399.

Experiment [1] has as its target M. sp. JS623 type IV-B Csf2 (Cas7-like backbone subunit), N-terminally Strep-tagged (Mycobacterium sp. JS623). The experiment in a line: cryo-EM structure.
The target of experiment [2] is M. sp. JS623 type IV-B Csf4 (Cas11 small subunit) (Mycobacterium sp. JS623). The experiment in a line: cryo-EM structure.

By stoichiometry N is commonly meant the number of molecules, sites or subunits per partner or assembly. For the substance “M. sp. JS623 type IV-B Csf2 (Cas7-like backbone subunit), N-terminally Strep-tagged (natural protein)”, the stoichiometry N in experiment [1] amounted to 7.
In experiment [2], “M. sp. JS623 type IV-B Csf4 (Cas11 small subunit) (natural protein)” yielded a stoichiometry N of 5.
